This note sets out measurements from article PMC4705923, “Structural Insights into the MMACHC-MMADHC Protein Complex Involved in Vitamin B12 Trafficking*” (The Journal of Biological Chemistry, 2015).

Residue numbers refer to the chain shown, from its start. Names and notes keep the numbering of the source.

One assay has as its target T1, untagged HsMMACHCΔC (human, UniProt Q9Y4U1 1-235).
T1 construct: human MMACHC lacking the C-terminal Pro-rich region (aa 236-282); Form used for SAXS; not shown: His6, N-terminal, cleaved
T1 sequence (looked up): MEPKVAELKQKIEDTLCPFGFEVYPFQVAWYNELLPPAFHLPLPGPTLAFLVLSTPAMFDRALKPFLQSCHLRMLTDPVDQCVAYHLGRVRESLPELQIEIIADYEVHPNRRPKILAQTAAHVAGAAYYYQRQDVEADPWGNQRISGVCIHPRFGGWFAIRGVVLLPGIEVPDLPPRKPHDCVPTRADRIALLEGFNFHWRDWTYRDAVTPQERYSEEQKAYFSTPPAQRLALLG
Nature of the assay: SAXS; complex reconstituted from untagged proteins with MeCbl and GSH, purified by size-exclusion chromatography, 17 mg/ml; in-line HPLC column or batch mode; Diamond B21. The settings on record: both partners purified. (SEC sorts molecules by how far they enter the pores of the column.)

A further assay addresses T2, HsMMACHCΔC (human, UniProt Q9Y4U1 1-235).
T2 construct: human MMACHC lacking the C-terminal Pro-rich region (aa 236-282); Form used in BN-PAGE and size-exclusion chromatography; source: E. coli BL21(DE3)R3, purified (Ni-Sepharose, Superdex 200)
T2 sequence (looked up): T1 sequence (looked up)
Nature of the assay: SEC; analytical size-exclusion chromatography of the two proteins with MeCbl and GSH; molecular weights from a calibration curve. Particulars: both partners purified.

Assay [1] addresses T3, full-length human MMACHC (HsMMACHCFL) (human), Q9Y4U1.
T3 chain: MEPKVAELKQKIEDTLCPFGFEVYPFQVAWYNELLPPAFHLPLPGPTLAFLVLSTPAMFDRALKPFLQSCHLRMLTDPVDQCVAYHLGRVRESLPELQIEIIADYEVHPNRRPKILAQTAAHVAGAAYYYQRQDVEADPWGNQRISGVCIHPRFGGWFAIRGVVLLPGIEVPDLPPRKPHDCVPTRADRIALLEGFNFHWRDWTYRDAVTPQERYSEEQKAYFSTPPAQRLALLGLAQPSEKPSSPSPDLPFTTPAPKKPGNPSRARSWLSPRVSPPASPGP
Nature of the assay: native gel or EMSA; blue native-PAGE of single proteins, 25 μM; MMACHC alone and with MeCbl and GSH; MMADHC truncations alone. Particulars: remark: other sources report otherwise. For orientation: In EMSA bound probe runs differently from free probe, usually more slowly.

Assay [2] deals with T4, full-length human MMACHC (HsMMACHCFL) (human, UniProt Q9Y4U1 1-282).
T4 construct: human MMACHC, full length (C-terminal Pro-rich region is aa 236-282); source: E. coli BL21(DE3)R3, purified (Ni-Sepharose, Superdex 200)
T4 sequence (looked up): T3 chain
Nature of the assay: native gel or EMSA; blue native-PAGE; 25 μM of each protein with 50 μM MeCbl and 8 mM GSH, preincubated in the dark at room temperature for 1 h; complex judged by an additional band. The settings on record: both partners purified.

For assay [3], the target named is T4, full-length human MMACHC (HsMMACHCFL). Briefly: native MS; about 4 mg/ml MMADHC and MMACHC incubated with 0.5 mM MeCbl and 2 mM reduced GSH, desalted into 50 mM ammonium acetate pH 6.5; Q-TOF, electrospray, positive ion mode. Particulars: both partners purified.

B1: untagged MmMMADHCΔ128 (domain or fragment, Mus musculus, UniProt Q99LS1 129-296, looked up)
chain: PVEQEINSAETYFESAKVECAIQTCPELLRRDFESLFPEVANSKLMILTVTQKTENDMTVWSEEVEVEREVLLEKFISGAKEICYALRAEGYWADFIDPSSGVAFFGPYTNNTLFETDERYRHLGFSVDDLGCCKVIRHSLWGTHVVVGSIFTNATADSSIMRKLSGN
notes: mouse MMADHC aa 129-296; Form used for SAXS; not shown: His6, N-terminal, cleaved
Take B1: the “stoichiometry N” value with untagged HsMMACHCΔC is 1.

B2: MmMMADHCΔ128 (M. musculus MMADHC aa 129-296) (domain or fragment, Mus musculus, UniProt Q99LS1 129-296, looked up)
chain: B1 chain
notes: Form used in BN-PAGE and size-exclusion chromatography; source: E. coli BL21(DE3)R3, purified (Ni-Sepharose, Superdex 200)
Take B2: the “stoichiometry N” value in the assay with HsMMACHCΔC is 1.

B3: full-length human MMACHC (HsMMACHCFL), Q9Y4U1 1-282 (natural protein)
chain: T3 chain
Regarding B3, in assay [1], the stoichiometry N came out at 2.

B4: HsMMADHCΔ61 (domain or fragment, human, UniProt Q9H3L0 62-296, looked up)
chain: MGPFGPQDQRFQLPGNIGFDCHLNGTASQKKSLVHKTLPDVLAEPLSSERHEFVMAQYVNEFQGNDAPVEQEINSAETYFESARVECAIQTCPELLRKDFESLFPEVANGKLMILTVTQKTKNDMTVWSEEVEIEREVLLEKFINGAKEICYALRAEGYWADFIDPSSGLAFFGPYTNNTLFETDERYRHLGFSVDDLGCCKVIRHSLWGTHVVVGSIFTNATPDSHIMKKLSGN
notes: human MMADHC (296 aa) with N-terminal truncation Δ61; by analogy with MmMMADHCΔ128 = aa 129-296; source: E. coli BL21(DE3)R3, purified (Ni-Sepharose, Superdex 200)
Take B4: the binding result in assay [2] is on record as “binds”.

B5: HsMMADHCΔ153 (domain or fragment, human, UniProt Q9H3L0 154-296, looked up)
chain: PELLRKDFESLFPEVANGKLMILTVTQKTKNDMTVWSEEVEIEREVLLEKFINGAKEICYALRAEGYWADFIDPSSGLAFFGPYTNNTLFETDERYRHLGFSVDDLGCCKVIRHSLWGTHVVVGSIFTNATPDSHIMKKLSGN
notes: source: E. coli BL21(DE3)R3, purified (Ni-Sepharose, Superdex 200)
Take B5: the binding result in assay [2] was “binds”.

B6: HsMMADHCΔ123 (domain or fragment, human, UniProt Q9H3L0 124-296, looked up)
chain: QGNDAPVEQEINSAETYFESARVECAIQTCPELLRKDFESLFPEVANGKLMILTVTQKTKNDMTVWSEEVEIEREVLLEKFINGAKEICYALRAEGYWADFIDPSSGLAFFGPYTNNTLFETDERYRHLGFSVDDLGCCKVIRHSLWGTHVVVGSIFTNATPDSHIMKKLSGN
notes: human MMADHC (296 aa) with N-terminal truncation Δ123; source: E. coli BL21(DE3)R3, purified (Ni-Sepharose, Superdex 200)
With B6, the “stoichiometry N” value in assay [3] was 1.

B7: HsMMADHCΔ123-D226A (domain or fragment, human, UniProt Q9H3L0 124-296, looked up)
chain: B6 chain with D103A
notes: human MMADHC Δ123 construct with p.D226A (stretch 2); also called p.D226A; source: E. coli BL21(DE3)R3, purified (Ni-Sepharose, Superdex 200)
In the case of B7, in assay [2], the binding result is listed as “binds”.

B8: HsMMADHCΔ123-M186A (domain or fragment, human, UniProt Q9H3L0 124-296, looked up)
chain: B6 chain with M63A
notes: human MMADHC Δ123 construct with p.M186A (stretch 1); also called p.M186A; source: E. coli BL21(DE3)R3, purified (Ni-Sepharose, Superdex 200)
On to B8, for which the binding result in assay [2] is recorded as “binds”.

B9: HsMMADHCΔ123-L259P (domain or fragment, human, UniProt Q9H3L0 124-296, looked up)
chain: B6 chain with L136P
notes: human MMADHC Δ123 construct with p.L259P (stretch 3); also called p.L259P; source: E. coli BL21(DE3)R3, purified (Ni-Sepharose, Superdex 200)
As for B9, the binding result in assay [2] is given as “binds”.

For orientation: stoichiometry N means the number of molecules, sites or subunits per partner or assembly.
